Experimental findings from patent US20020123614A1 are described below.

Test [1] concerns the target wild-type LFA-1 (αL/β2 complex) (human) (UniProt P05107). The test can be described thus: cell adhesion to immobilized ICAM-1.
The target in test [2] is LFA-1 high affinity open mutant K287C/K294C (αL K287C/K294C with β2) (human) (UniProt P05107). The test can be described thus: 293T cell adhesion to immobilized ICAM-1.
Test [3] addresses wild-type LFA-1 (αL/β2 complex) (human) (UniProt P05107). The test can be described thus: 293T cell adhesion to immobilized ICAM-1.
Test [4] addresses LFA-1 high affinity open mutant K287C/K294C (αL K287C/K294C with β2) (human) (UniProt P05107). The test can be described thus: K562 cell adhesion to immobilized ICAM-1.
For test [5] the target is unchanged. The test can be described thus: flow cytometry, 293T; normalised to TS2/4.
Test [6] addresses LFA-1 low affinity closed mutant L289C/K294C (αL L289C/K294C with β2) (human) (UniProt P05107). The test can be described thus: flow cytometry, 293T; normalised to TS2/4.
Test [7] deals with LFA-1 high affinity open mutant K287C/K294C (αL K287C/K294C with β2) (human) (UniProt P05107). The test can be described thus: flow cytometry, K562; normalised to TS2/4.
The target of test [8] is LFA-1 low affinity closed mutant L289C/K294C (αL L289C/K294C with β2) (human) (UniProt P05107). The test can be described thus: flow cytometry, K562; normalised to TS2/4.
Test [9] addresses wild-type LFA-1 (αL/β2 complex) (human) (UniProt P05107). The test can be described thus: K562 (+CBRLFA-1/2) cell adhesion to immobilized ICAM-1.
Test [10] concerns the target LFA-1 high affinity open mutant K287C/K294C (αL K287C/K294C with β2) (human) (UniProt P05107). The test can be described thus: cell adhesion to immobilized ICAM-1.
Test [11] concerns the target LFA-1 single cysteine substitution mutant K287C (human) (UniProt P05107). The test can be described thus: flow cytometry, 293T; normalised to TS2/4.
In test [12] the target is LFA-1 single cysteine substitution mutant K294C (human) (UniProt P05107). The test can be described thus: flow cytometry, 293T; normalised to TS2/4.
Test [13] concerns the target LFA-1 single cysteine substitution mutant L289C (human) (UniProt P05107). The test can be described thus: flow cytometry, 293T; normalised to TS2/4.
Test [14] concerns the target iC3b coated on plastic (UniProt P01024). The test can be described thus: cell adhesion to immobilized iC3b; -DTT, +activation.
For test [15] the target is unchanged. The test can be described thus: cell adhesion to immobilized iC3b; -DTT, -activation.
Test [16] has the same target. The test can be described thus: cell adhesion to immobilized iC3b; +DTT, +activation.
The target of test [17] is ICAM-1 purified from human tonsil, immobilized (human) (UniProt P05362). The test can be described thus: 293T wild-type LFA-1 cell adhesion to immobilized ICAM-1.
Test [18] shares this target. The test can be described thus: 293T K287C/K294C LFA-1 cell adhesion to immobilized ICAM-1.

Chain of ICAM-1 purified from human tonsil, immobilized (human) (P05362 28-532 limits assumed, form in doubt): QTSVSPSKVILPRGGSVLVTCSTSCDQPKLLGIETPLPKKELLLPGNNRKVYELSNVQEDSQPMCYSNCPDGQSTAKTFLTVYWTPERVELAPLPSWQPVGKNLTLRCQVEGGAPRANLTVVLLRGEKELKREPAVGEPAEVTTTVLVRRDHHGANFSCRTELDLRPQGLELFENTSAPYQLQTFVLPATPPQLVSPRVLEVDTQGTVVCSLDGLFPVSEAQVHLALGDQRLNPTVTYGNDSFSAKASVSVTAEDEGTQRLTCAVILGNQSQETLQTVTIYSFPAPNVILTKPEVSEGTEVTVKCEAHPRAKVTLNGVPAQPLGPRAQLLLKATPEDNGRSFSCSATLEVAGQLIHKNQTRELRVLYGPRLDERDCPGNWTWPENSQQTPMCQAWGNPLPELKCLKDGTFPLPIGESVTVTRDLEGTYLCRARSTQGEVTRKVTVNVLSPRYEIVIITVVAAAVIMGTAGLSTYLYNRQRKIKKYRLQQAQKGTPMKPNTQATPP

On to monoclonal antibody 25-3-1, for which the % inhibition was above 90% in test [1]; 3.71% in [2]; 90.5% in test [3]; 2.53% in test [4]; 92% in test [9]. Besides, the % wild-type binding in test [5] was 93.1%; in [6] it was 90.9%; in test [7] it was 88.5%; in [8] it was 85.7%.
monoclonal antibody CLBLFA-1/1: the % inhibition was above 90% in test [1], 6.69% in test [4] and 94.6% in [9]. In addition, the % wild-type binding stood at 96.5% in [7] and 100% in [8].
With monoclonal antibody May.017, the % inhibition in test [1] was above 90%; in test [4] it was 2.98%; in test [9], 97.8%.
In the case of “mouse anti-human αL (CD11a) monoclonal antibody TS1/12”, the % inhibition is 40 to 60% in [10]; above 90% in test [1]; 49% in test [2]; 95.7% in test [3]; 63.7% in test [4]; 97.5% in test [9]. Also, the % wild-type binding in [5] was 88.7%; in [6], 102%; in test [11] it was 99.3%; in [12], 93.7%; in [13] it was 104%; in test [7], 87.3%. In test [8], this substance registered a % wild-type binding of 106%.
“Mac-1 (αMβ2) mutant D294C/T307C (from UniProt P05107 23-769) (receptor)”: the percent of binding by activated wild type transfectant with iC3b coated on plastic [14] was in the range of 5 to 25%; with iC3b coated on plastic [15], 0 to 5%.
Take “mouse anti-human αL (CD11a) monoclonal antibody TS2/6”: the % inhibition in test [2] amounted to 79.1%; in [3], 96.8%; in test [4] it was 88.1%; in test [9], 91.8%. Moreover, the % wild-type binding in test [5] was 84.9%; in [6], 78.6%; in test [11], 91.4%; in test [12] it was 91.7%; in test [13], 88.2%; in [7], 89.2%. Moreover, the % wild-type binding in [8] is 95.9%.
For the substance “anti-β2 (CD18) monoclonal antibody TS1/18”, the % inhibition in [1] is above 90%; in test [4] it was 5.9%; in [9], 98.5%. Moreover, the % wild-type binding was 99.8% in [5]; 95.7% in test [6]; 87.9% in test [11]; 108% in test [12]; 87.3% in test [13]; 97.4% in test [7]. In test [8], this substance gave a % wild-type binding of 106%.
As for monoclonal antibody S6F1, the % inhibition in test [4] amounted to 9.7%; in [9], 6.19%. The % wild-type binding in test [5] worked out at 89.4%; in test [6], 95.3%; in [11], 98.3%; in test [12] it was 92.3%; in test [13], 86.4%; in test [7] it was 97.4%. Besides, in test [8], the % wild-type binding was 85.7%.
Take “mouse anti-human αL (CD11a) monoclonal antibody TS1/11”: the % inhibition in test [10] was 40 to 60%; in test [1], above 90%; in test [2] it was 45.2%; in [3] it was 94.1%; in [4] it was 41.3%; in test [9] it was 96.5%. For the same substance, the % wild-type binding in [5] came to 94.4%; in test [6], 93.7%; in test [7] it was 96%; in test [8], 105%.
With “mouse anti-human αL (CD11a) monoclonal antibody TS1/22”, the % inhibition amounted to 95.1% in test [2], 95.8% in test [3], 93.6% in test [4] and 96.9% in [9]. Further, the % wild-type binding in test [5] worked out at 95.8%; in [6], 91%; in [11] it was 103%; in test [12], 92.2%; in [13], 96.2%; in [7] it was 93.1%. For the same substance, the % wild-type binding in test [8] came to 110%.
For the substance “mouse anti-human αL (CD11a) monoclonal antibody TS2/4”, the % inhibition in test [4] amounted to 2.82%; in [9] it was 6.99%.
Consider “Mac-1 (αMβ2) mutant F297C/A304C (from UniProt P05107 23-769) (receptor)”, for which the percent of binding by activated wild type transfectant with iC3b coated on plastic [15] fell in the range of 0 to 5%.
Consider “Mac-1 (αMβ2) mutant Q163C/R313C (locked closed) (from UniProt P05107 23-769) (receptor)”, for which the percent of binding by activated wild type transfectant in the test with iC3b coated on plastic [16] was in the range of 50 to 75%; with iC3b coated on plastic [14], 0 to 5%; with iC3b coated on plastic [15], 0 to 5%.
Take monoclonal antibody 6.5E: the values for the % inhibition in test [1], in [4] and in test [9] were above 90%, 5.79% and 98.4%, respectively.
Take “mouse anti-human αL (CD11a) monoclonal antibody TS2/14”: the % inhibition in test [1] is above 90%; in test [2], 2.95%; in test [3] it was 94.5%; in test [4] it was 8.55%; in [9] it was 96.2%. The % wild-type binding in test [5] stood at 85.5%; in test [6] it was 83.3%; in test [11], 103%; in test [12], 103%; in test [13] it was 100%; in [7], 95.4%. Further, in test [8], the % wild-type binding amounted to 103%.
For “anti-β2 (CD18) monoclonal antibody CBRLFA-1/7”, the % inhibition in test [4] came out at 5.77%; in test [9], 5.04%. The % wild-type binding in test [5] came to 95.3%; in test [6] it was 91.7%; in [7] it was 95.2%; in [8], 97.2%.
Take monoclonal antibody RR1/1: the % inhibition in test [17] was 96%; in [18], 97.9%.
“Mac-1 (αMβ2) mutant Q298C/N301C (from UniProt P05107 23-769) (receptor)”: the percent of binding by activated wild type transfectant in the test with iC3b coated on plastic [14] is 5 to 25%; with iC3b coated on plastic [15], 0 to 5%.
With mAb YFC51 (antibody), the % inhibition in test [1] is above 90%; in [4] it was 0.08%; in test [9], 98.4%. Besides, the % wild-type binding in [5] stood at 103%; in test [6] it was 95.1%; in test [7], 101%; in test [8], 111%.
In the case of monoclonal antibody F8.8, the % inhibition in test [2] turned out to be 91.9%; in [3], 94.5%; in test [4], 98.2%; in test [9], 97.6%. The % wild-type binding in test [5] was 93.7%; in test [6] it was 83.6%; in [11] it was 95.9%; in [12] it was 95.5%; in [13], 99.6%; in test [7], 102%. The % wild-type binding in test [8] is 93.9%.
As for monoclonal antibody May.035, the % inhibition was 97.4% in test [2], 96.2% in test [3], 93.3% in test [4] and 95.8% in [9]. For the same substance, the % wild-type binding in test [5] is 92.6%; in test [6], 82.1%; in test [11] it was 95.8%; in [12], 106%; in [13] it was 95.4%; in test [7], 92.6%. Besides, in test [8], the % wild-type binding amounted to 101%.
Consider monoclonal antibody BL5, for which the % inhibition in [2] is 91.1%; in test [3], 97%; in test [4], 90.7%; in [9], 97.5%. Also, the % wild-type binding is 92.4% in test [5]; 85.8% in test [6]; 93.3% in test [11]; 88.3% in [12]; 92.4% in test [13]; 92.4% in test [7]. In addition, the % wild-type binding in test [8] stood at 97.6%.
